Test results as given in the supplement of paper PMC12636428.

Test system: Saccharomyces cerevisiae
Assay: transcriptional activation domain activity (GFP:mCherry ratio, weighted mean of sorted bins, harmonized to initial dataset scale) (arbitrary fluorescence ratio units); higher = stronger transcriptional activation
Details: beta-estradiol 1 µM; induction time 4 h
Summary of the method: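 After a 1:5 dilution into SC with 1 uM beta-estradiol and 4 hours at 30 °C, yeast diploids carrying a GFP reporter and URA3-integrated barcoded tiles were sorted into 8 bins by GFP:mCherry ratio. The tiles were fused to an estradiol-inducible synthetic transcription factor. Barcodes were sequenced, tiles below 50 reads were discarded, and activation activity was taken as the read-weighted mean of bin median fluorescence, averaged across barcodes and linearly mapped onto the initial dataset scale.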

Sequence	transcriptional activation domain activity
HVERGRDVTKGFVKCHTHMRTTCVGSIRFSHAASFAPSVCLGVGVKSLDRRPL	37300
FMHYYRRDRRHLKFLVLLVLFLSTCHFGLYVLTIFRVFVTMHSVVIPSHQVPW	63000
QAAFRQRRANYIATLEETGWVVSILLYLHRSSLSFSAVTSLESVVLQLQDSCR	53400
SLDALHIIFVAHSLYWYLVLNYITPLALLSIVWSFHLQIAINIMLIASVQTAY	37300
QKKLLILCGFGWLADNVSIYHLLSISCWFYYKGTQLYSLFLIRCGYRLWLLFF	70700
VVGGQQKFGTKMVVESDKKCRLILLPRFAETGILVLVNMRTLAVKCVKFGTRG	19300
GVEGQGKRTRAGKKRRIVLRERQRKRVKEEEERKKKGEEKEGREREKRVRRNR	46700
HSLLRGDKETGVCVIEMTPFKQGIDSGAIYGKKTVLVVFCLVKLLLSQAVPES	28600
SFSLLALSFFFLHVLFSLIIAPCVWFWFFSWLWFWLDLSSPRTYCIHIWLIHP	39300
CRGFGFWVRVLLGICGVCGVVALRTYAIYHVFQLNLPSRGLRFYLPLLFYIAC	57100
DDTGEEEQPPPASNSSAGVATSTTVVPQQLPARYRLRAFISHKGPSVHSGHYV	29800
RTPTYDRRTIIQGLQQAEMNLDNSFKRVSEMILMLMIRMHDWSTLRRRFQMDQ	45200
FMVLFFITLFSFLVLIPFPWSFVSRYVYSSMFMFCIFFSAFLRFHLLLLSFCR	54900
AAAAAPATTTTESAPAPAAEAAKPAEEAKPAATEAAPAADATAAAPAPAPAAA	< 6570
SATEFVTVGGTGNVYHWDMEYSFSRNDDDNEDEVRVAAPEELQGQCLKFFHTG	51000
EKQKKKRKRGKRRRRRRNEKEEKEGEEEEEEKQEAKEEAKEEAKEEAKKKEKK	24600
LSFRFLDYTSLTHCVDYRNPALAFNILVTCLLFLILRPKPLVLYWCLVCIGFW	44700
EFFVLWVVQAIIGSRLEMYWAVLMICVLRCNQSYVSNACREVWLSWIIHGWVQ	61500
FFPLGFLMRFLLFDLSLSCFLSFPLFLFSLPTTFLLYYYFPPHTIIMSCGSPI	43500
KAGGTGAKQEKEPQGEGRETEGNQAKANRRTKGGTARGEGAAGGRRRRKGEES	35000
MPQESKGKASAAAQRAHEKESKRARGALSCAECRRLKLKCDKSVPCSSCVRRG	44700

Sequence	transcriptional activation domain activity
TATVQYSERRRGTVTAFNDEKGYGFAADSDPASLGNKEVLVHHKKIKSTARHK	24200
LLLHVLIALRFWRFFGYSIGMVCGILLELVGYCGKVQLSHNRDNKDGYIIGLT	50800
MRWTSTISFFLLPLGFFFSFHPFHIPFSTFLVSFEICIFFLSFFFSFLPIFLF	58500
AFVLFLIYLTFFCWLCFATSASWVWSEILSDGQYNESFMPVNYVLLAVLSGII	53800
METSASARSPPPSTRQPSAPRRVRAALACQRCKGRKQKCEGGQPSCRSCIKAG	60700
KREDIVRVVNGIFCCYILTFSLFFLFFLVYPSLCFLCLFPLCGVLSFFYLYFP	20900
VLRMFFVSQANTFVILSLLGLCLPSRALPAAFGFSPSYAPLLIRLYLAQTLFT	25800
MGIIIVVCVFFLFDRFSFLSCFSSFSLELIRFFIFILLTFLSFCHSPFYLFFF	60900
ESAPAAEDKPAEETKPAEAEEAPKAEEKKEEVKPIEEGHLNHKAQGLSFPKNL	< 6570
EKTVEQPEELKETGGKEPRIERKLPLQYDHHQRKTRDNQMFQLAVVIYFLGKL	40300
DGHFGSDFGWVWPFSFSLFCFLFCILHFLVYCTHNVLLWKQLSLNFLFCIFHG	54100
PKQYCVRPNAARLEPGERVEVQVLLQPMKEDPPEDTKCRDKFLIQSAAIPPQH	39200
WKATKYLIGLWIQCFRDRGLIGPVGYRGHVHCVVRFCLCLIPKSHWQTIIVVT	63500
EDRSEKRKRKRDDEVEPKKSKSKWKPEEKSDEDPKSTPKSNGGKRRRPERPEK	27300
CCQSNSLLNMENYLVPYDNFREVVDSRLQEESHSNGVDNSNSNSDNKDSIRPK	24200
EKTEKKAKAPKSPKKEKKKEASETAAAPATEEPAKEAAKEEAAPATEAPAATE	31300
GRWSYLRTSEMILTFFYKNIMWTLVLFWYQLMCGFTGTMMFDYSYITLYNLVF	46300
RSDRDRRRKQSPESRGRRHRSRSKDARREKRKRADSEGEQSARRSRPSEHHRR	19100
EEGDMDVDEEEGTPTKKRKLSKEEKKALKKEKKKAAKDAAAAVSDYWIVCDQS	45200
MSSAASSTGSPRPKRRRRRPARSCEQCRRRKIRCDMGQPCNGCVRARVSMECS	38300
SSSSSSSSESGSESDSGSDDGSASGSGDNSSTSSESESESDSGSEVDEKNNKN	33900

Sequence	transcriptional activation domain activity
QSNWVEGFSTHHEPFRPHKRRIKSVIDCSERTAVLVADLIGGLPCVVELKPKW	64400
EGGEKGGHGGKEGGEGGEGGEGGEEGGHGGHWGHKKHGHGGGKQKGGWGHHGY	45300
GPWFLGAFIPSIPQYGLFYPYGIYFPDTKEWIPILDTFYIALWEHTFFIFPLL	51600
VKKKGGSGGIDAGDIWGCNRRGSNFVEVRSMLAKEGGRLLVNVLRDMIDGTVR	65900
NASVTREVPQFDTSANQMLSDIWSWIYYSEEFLAIPPSMVEGYDFSWQGLLGI	120000
STPAAKPTPEPGQQPRKRGRPRIIRDDPPEGGGPPAAKKAKRGRKPKVVAPPA	27400
ALLKLLVMMLWEIEFYEPCFGALRLMDYITSEICPDSNLSAEATLLRIRTLIR	58200
VLVVLCLRFFIFGIFGYILGFWMQHLLPYTPLSLSFMCLLFCLSFHLDISPSP	45600
INSTIHNLCELAILPDLCGICCFSMRFFVYLDLIGTLILPSTVVYLVWLIIQV	82700
MLLASGCWIQSTYGLFYKCLYFFYLAIFFDHFTFSLNNFLITQCRYPIISLFI	78000
LSVVHISAPGYQAFFLLQSFRYILLWVLSFLSHFFLPFFLLCQGCFLVQHLPT	54000
MLLVSLVRVVHGFTVQQYIYTGQWLLYISLIFFLLHFPLVMKPITFLTILCLA	55100
MSASPPTGSGGTDERQRQRVTRACEPCRRKKIRCDGRKPCSACADAQAGNGCA	34300
TCRLSSPHLWWLTFGILCVLYLMVLEIFLLGLLVFFVGPLFYLFWNVVLLCLG	79500
WHTDLGIPSFGWTLLHELEGLLGRIEANWMEEVTVRTIVLLTSRLLSAVRDHD	55200
KRKPRRPVRVDKDPEEEEEEDKEEEEEEEEDPRGKEKKKAKPKRKAKAKAAED	21400
ESEKAGGKRKQERRSRAGRGEGEGEERENRCRGEEGRGREGGGRREGKEGVGG	39400
MLLKRVHSKVYVQDCLLIGGRSIFVLDMHLFFKLLLFTAASIRNQTVIMLIFV	54100
VAIFTDVKNDHLMPNFNLHDQYCNSTNHDSHNHNNTVPDSFSQLMSHLSEIDC	27700
TKPAPKKAGGRPKKVVAEPEPAAEPSESEEPKLAPKRAGGRPKKVVAPVAEPE	19400
VAPLLLAGACCIAHHFMLVFLEGCTVQSEFWIRNANSAFSLLISALLASCVGT	77100

Sequence	transcriptional activation domain activity
MGGFVYAYCSAQSLTLLPWLLFFDYLFFSFLCILNYISFLFFYFLGFEVGWVI	71200
NSSVYETVTRNLHDDLLGGSLNLKVILEMLLAHVIVNPSLVLEPAASLLRRNG	58200
LALQTMYFIPDIPQQALVDFWPRIWPWVQFFDIYGDIIRLCPPLQLYWVFFAY	25500
PFLPSSLPPFLPSSLPPFLPSSLPPFLPSSLPPSLLFSFLFSFPLPSPPSLPL	64000
MKACLRCLVFLLGCTSPWCFTRYLALEHFTLFWIDADLWWQVYRFSILVLLSY	44400
IMCQWVKNLKERLLKMPPALRICLADHVLKFVIPKLHILGHLKLCQELFSLLY	47100
MYFAYFYLLPEMSSLSFFPFLSVYVFFIFFSSLICFFFFLSMGFLCLFTFLLV	45200
RPYLLLLHLLCSFFFFESISIILAIAFQLLLIRASSHMIIRMLLQVYCFLSMR	75900
VVAAETAPATEEKPAEETKPAEEAAKAEEKKEEEEIKPVEEGHLNHKAQGLSF	49400
ETSDEAKSEDSSSDEGDDSSSSEDDGRKRSRKKSVIKMRKTKAKKTKKKGKKS	39300
PENWTMDSWPLYWPQALIDTIPSLQLSIPPMDLTTLDNPLAPFAFFMFLFSWQ	53400
KAVAALRRQTGQEAVEVEVAPIRQKRRETVGATVTTARPVAGSQTGPALTQVT	14800
MVLLSVLCVLICNYFCLLVFTVAMGMPSGPPVRPLFQVILAHRRYLFSFRTHW	82500
EEEKPKEEKPKEEKPEEEKPEEQKPEEEKPKEKPEEQKPEAPAPTPAPEPAPE	23200
GDQGAGRRDRRRRLGHRGGGEGRGREEGEEGRRDGEGRHRGEGGREEGEEEDR	14300
MGLWARFICFVIVCLQITSLYCLFSCSPSFLYFKKIQPLFFTFFFFLLSLFPS	52400
NRNQDAAEPSAAASSSAAAPAETPARGGNRQNDGANNQGGNNQNNGGNNRQQE	41100
VSVRQASDGVGCLLEVMAHSRSVNAWTRVLKQLRLAQCVLLNIQQSLSQVWSM	77300
VCQPLSPPVTGVLLVSFLPLFSRAFLAFLLSTLWLFSPLSDHILYYFCFYLAL	35200
EEEVEEKKAKKEKKSKEDKEDKKAKKDKKSKKDKSKDADEDVERTNGHSTPAA	26100
